Source: patent publication US20160108117A1 (UNIVERSITE DE NICE SOPHIA ANTIPOLIS, published 2016)

B1: monoclonal rat IgG antibody produced by the hybridoma 35B11-8 (CNCM I-4618) (antibody, V domains shown)
VH: EVQLVESGGGLVQPGRSLKLSCVASGFTFNNYWMTWIRQAPGKGLEWVASISKTGSNPYYPDSVKGRFTISRDNAKNTLYLQMNSLRSEDTATYYCARDGTTPLDYWGQGVMVTVSS
VL: DIQMTQSPPSLSASLGDKVTITCQASQNINKYIAWYQQKPGKAPGLLIHYTSTLVSGIPSRFSGSGSGRVYSFSISNVESEDIASYYCLQYDNSPFPFGAGTKLELK
notes: also called Mc35B11-8
B2: monoclonal rat IgG antibody produced by the hybridoma 12A10-13 (CNCM I-4617) (antibody, V domains shown)
VH: QVQLQQSGAELAKPGSSVKISCKASGYTFTSYYISWIKQTTGQGLEYIGYINTGSGGTNYNEKFKGKATLTVDKSSSTAFMQLSSLTPDDSAVYYCASPSGGFDYWGQGVMVTVSS
VL: EIVLTQSPTTMAASPGEKVTITCRASSSVSYMHWYQQKPGASPKPWIYDTSKLASGVPNRFSGSGSGTSYSLTISSMETEDTATYYCQQWSSNSLTFGSGTKLEIK
notes: also called Mc12A10-13

Assays:
[1] = molecular target: T1, peptide specific for human CXCL7 of sequence SDLYAELRCMCIKTTSGIHPKNIQS (SEQ ID NO: 20) coupled to keyhole … (human, coupled to keyhole limpet hemocyanine); assay: ELISA screen on KLH-coupled peptide
T1 construct: Immunisation peptide, used in the ELISA screen as a KLH conjugate; also called pCXCL7
T1 peptide: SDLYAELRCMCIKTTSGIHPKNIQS

CXCL3 [2] = molecular target: T2, CXCL3 (human (presumed; the text does not …, UniProt P19876); assay: SPR (Biacore 3000), antibody captured on a CM5 chip, cytokine injected as analyte, 25 C
T2 construct: also called cytokine CXCL3; Gro-gamma
T2 sequence (chemokine, looked up): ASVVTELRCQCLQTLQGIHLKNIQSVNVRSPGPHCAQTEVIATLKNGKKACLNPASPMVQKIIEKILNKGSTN
Source text: (§1) With the BIAcore® 3000, 4 canals (Flow cell) are designed on the CM5 sensor surface. The polyclonal rabbit anti mouse IgG antibodies are covalently coupled on the 2nd, 3rd and 4th flow cells (FC), leaving the first FC (FC1) blank for reference subtraction. The first FC (FC1) is only activated (EDC/NHS) and deactivated (ethanolamine hydrochloride NaOH), without injection of capture antibody.
(§2) First the ligand (interest antibody) is captured by the immobilised antibodies. Diluted antibodies Mc12A10-13 (5 μg/mL), Mc35B11-8 (8 μg/mL), McCXCL1 (2 μg/mL), McCXCL7 (1 μg/mL), McCXCL8 (3 μg/mL), McPan CXCL1-2-3 (5 μg/mL) are captured by the polyclonal rabbit anti mouse IgG antibodies immobilized on the CM5 sensor chip with a 3 minutes injection at a flow rate of 5 μL/min. The complex “capture antibody—ligand” is stabilized during 10 minutes before the injection of the analyte (cytokines). This capture is a non-covalent interaction.
(§3) Then a range of cytokine concentration is injected (analyte) over the captured antibody (ligand). Cytokines CXCL1, CXCL3, NAP2, IL8 are injected over the captured ligand for a range of concentration from 0 to 10 μg/mL, at a flow rate of […]. The complex “ligand/analyte” is formed. The association and the dissociation phases are monitored over about 3 minutes and 2.5 minutes respectively. The signal induced is measured in RU (Resonance Unit).

human chemokine CXCL7 [3] = molecular target: T3, human chemokine CXCL7 (human, UniProt P02775 59-128); assay: as above
T3 construct: also called NAP2; NAP-2
T3 sequence (looked up): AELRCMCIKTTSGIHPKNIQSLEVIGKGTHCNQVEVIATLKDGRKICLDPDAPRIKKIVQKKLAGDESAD
Source text: as §1, §2, §3

human chemokine CXCL1 [4] = molecular target: T4, human chemokine CXCL1 (human, UniProt P09341 35-107); assay: as above
T4 construct: also called growth-regulated oncogene alpha; GRO-alpha
T4 sequence (looked up): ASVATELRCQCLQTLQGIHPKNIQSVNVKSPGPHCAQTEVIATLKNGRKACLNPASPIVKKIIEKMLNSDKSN
Source text: as §1, §2, §3

human chemokine CXCL8 [5] = molecular target: T5, human chemokine CXCL8 (human, UniProt P10145 28-99, limits assumed); assay: as above
T5 construct: also called IL8; IL-8
T5 sequence (looked up): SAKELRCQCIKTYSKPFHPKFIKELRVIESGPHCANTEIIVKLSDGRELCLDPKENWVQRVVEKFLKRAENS
Source text: as §1, §2, §3

human chemokine CXCL7 [6] = molecular target: T3, human chemokine CXCL7; assay: SPR (Biacore 3000), antibody captured on a CM5 chip, cytokine as analyte, 25 C; head 'x M10Exp8' applied, agrees with 1/Kd
Source text: as §1, §2, §3

human chemokine CXCL8 [7] = molecular target: T5, human chemokine CXCL8; assay: SPR (Biacore 3000), antibody captured on a CM5 chip, cytokine as analyte, 25 C; head 'x M10Exp8' applied as printed, but this does not agree with 1/Kd of the same pair (about 5.03e7)
Source text: as §1, §2, §3

human chemokine CXCL1 [8] = molecular target: T4, human chemokine CXCL1; assay: SPR (Biacore 3000), antibody captured on a CM5 chip, cytokine as analyte, 25 C; head 'x M10Exp8' applied as printed, but this does not agree with 1/Kd of the same pair (about 8.47e7)
Source text: as §1, §2, §3

human chemokine CXCL1 [9] = molecular target: T4, human chemokine CXCL1; assay: SPR (Biacore 3000), antibody captured on a CM5 chip, cytokine as analyte, 25 C; head 'x M10Exp8' applied as printed, but this does not agree with 1/Kd of the same pair (about 6.4e7)
Source text: as §1, §2, §3

CXCL3 [10] = molecular target: T2, CXCL3; assay: SPR (Biacore 3000), antibody captured on a CM5 chip, cytokine as analyte, 25 C; head 'x M10Exp8' applied as printed, but this does not agree with 1/Kd of the same pair (about 1.55e7)
Source text: as §1, §2, §3

human chemokine CXCL8 [11] = molecular target: T5, human chemokine CXCL8; assay: SPR (Biacore 3000), antibody captured on a CM5 chip, cytokine as analyte, 25 C; head 'x M10Exp8' applied as printed, but this does not agree with 1/Kd of the same pair (about 2.26e7)
Source text: as §1, §2, §3

binding result [1] | Kd (CXCL3 [2]) | Kd (human chemokine CXCL7 [3]) | Kd (human chemokine CXCL1 [4]) | Kd (human chemokine CXCL8 [5]) | Ka (human chemokine CXCL7 [6]) | Ka (human chemokine CXCL8 [7]) | Ka (human chemokine CXCL1 [8]) | Ka (human chemokine CXCL1 [9]) | Ka (CXCL3 [10]) | Ka (human chemokine CXCL8 [11]) | Binder
binds | 247 nM | 4.99 nM | 11.8 nM | 19.9 nM | 2.01e+08 M⁻¹ | 5.03e+07 M⁻¹ | 8.5e+07 M⁻¹ |  |  |  | B1
binds | 64.5 nM | 3.3 nM | 15.6 nM | 44.3 nM | 3.03e+08 M⁻¹ |  |  | 6.4e+07 M⁻¹ | 1.55e+07 M⁻¹ | 2.26e+07 M⁻¹ | B2
